Experimental findings from publication PMC5708649 (PLoS ONE, 2017) are described below.

The assay has as its target inactive E433A variant of full-length PgDPP III (Porphyromonas gingivalis W83, UniProt Q7MX92 1-886, E433A). Put plainly: ITC. Particulars: both partners purified.

B1: tynorphin (peptide)
peptide: VVYPW
notes: also called VVYPW; pentapeptide tynorphin
On to B1, for which the binding result is “binds”.

For the molecule IVYPW, the binding result is on record as “binds”.
